Source: patent publication US20090325168A1 (ONCOIMMUNIN, published 2009)
Square brackets hold non-standard residues; d marks the D form. Ends that are not written are not given here. * marks the point of attachment. 5‑TMR = 5'-carboxytetramethylrhodamine, CN(C)c1ccc2c(-c3ccc(C(=O)*)cc3C(=O)[O-])c3ccc(=[N+](C)C)cc-3oc2c1; rhodamine X acetamide = R492, linked via the cysteine sulfhydryl; Fmoc = O=C(OCC1c2ccccc2-c2ccccc21)*; Nle = CCCC[C@H](N)C(=O)O; Aib = CC(C)(N)C(=O)O; Ahx = NCCCCCC(=O)O

T1: CPP32 protease (human (Jurkat cells), UniProt P42574 29-277)
T1 sequence (looked up): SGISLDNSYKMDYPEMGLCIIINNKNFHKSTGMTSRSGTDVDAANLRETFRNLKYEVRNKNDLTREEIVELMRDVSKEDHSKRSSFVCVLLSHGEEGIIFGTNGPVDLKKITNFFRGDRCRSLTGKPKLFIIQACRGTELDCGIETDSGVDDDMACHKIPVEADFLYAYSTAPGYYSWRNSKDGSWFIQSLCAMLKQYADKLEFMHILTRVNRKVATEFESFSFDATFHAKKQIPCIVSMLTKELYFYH


Columns and labels:
[1] = molecular target: elastase; experiment: cell-based or functional assay
[2] = molecular target: T1, CPP32 protease; experiment: cell-based or functional assay

increase in fluorescence at 589 nm after treatment with elastase [1]	increase in fluorescence within the first 1000 seconds of exposure to elastase [1]	increase in fluorescence intensity in anti-Fas-activated Jurkat cells (flow cytometry) [2]	Binder
> 10 fold	> 5 fold		{5‑TMR}-DAIP[Nle]SIPC(rhodamine X acetamide) [D-NorFES-A protease indicator, F1-Asp-Ala-Ile-Pro-Nle-Ser-Ile-Pro-Cys-F2]
		≤ 10 fold	Fmoc-K(carboxytetramethylrhodamine)D[Aib][Ahx]GDEVDGIDG[Ahx]PK(carboxytetramethylrhodamine)GY [Fm-CGD2D, Fm-K[F1]DBJGDEVDGIDGJPK[F1]GY (compound 11 of Table 12)]
